Measured values taken from US20250216395A1 (ATYR PHARMA, published 2025).

B1: aNRP2-36v2 (antibody, V domains shown)
VH: ELQLQQSGPELVKPGASVKISCKASGYSFTDYNMNWVKQSNGKSLEWIGVINPKSGTTVYNQKFKGKATLTVDQSSSTAYMQLNSLTSEDSAVYYCARADSSGGCWGQGTTLTVSS
VL: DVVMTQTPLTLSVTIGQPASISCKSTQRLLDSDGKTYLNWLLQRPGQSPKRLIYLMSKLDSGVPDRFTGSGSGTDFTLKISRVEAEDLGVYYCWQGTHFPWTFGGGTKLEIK
notes: Three purification lots were tested; also called antibody aNRP2-36v2; anti-NRP2 antibody

Legend:
aNRP2-36v2 = molecular target: B1; experiment: Western blot competition: 1 ug/mL aNRP2-36v2 with 5 ug/mL blocking peptide; the blocked detection is that of NRP2v2 (23-855) and of NRP2a isoform 2 in lysate
Sequence of aNRP2-36v2 (VL, as listed by the source): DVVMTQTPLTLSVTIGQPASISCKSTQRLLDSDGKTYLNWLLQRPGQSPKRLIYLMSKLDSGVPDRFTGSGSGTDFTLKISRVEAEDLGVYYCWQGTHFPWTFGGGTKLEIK
Experimental: The specificity of aNRP2-36v2 in Western blotting was also confirmed by the ability of the blocking peptide NRP2 (642-659) (SEQ ID NO: 25) to block binding. For these studies, 100 ng of NRP2v2 (23-855) (SEQ ID NO: 14) recombinant protein and 20 ug of total protein from cell lysates of Expi293 cells transiently expressing NRP2a isoform 2 (SEQ ID NO: 10) were denatured for 10 minutes at 70° C. with 1×LDS (ThermoFisher, NP0007) and separated on a 4-12% Bis-Tris Protein Gel (ThermoFisher, NP0335) in 1×MOPS buffer (ThermoFisher, NP000102). The gel was then transferred to a nitrocellulose membrane (Fisher, cat. #IB23001) using an iBlot2 (Fisher, cat. #IB21001) for 7 min at 20V. The membrane was blocked for 1 hour using a 5% milk 0.05% TBST solution, followed by 1 ug/mL of aNRP2-36v2 antibody with or without 5 ug/mL blocking peptide, diluted in 5% milk 0.05% TBST. A peptide corresponding to NRP2v2 (809-820) (SEQ ID NO: 26) was also used as a control. Antibody was incubated on the blots overnight at 4° C. with rocking. After overnight incubation 3 washes with 0.05% TBST for 5 minutes each were performed and goat-a-mouse HRP secondary (Jackson Immuno Research, 115-035-071) diluted at 1:5,000 in the 5% milk mixture was applied to the blots for 1 hour. This was followed by 3 more washes with 0.05% TBST for 5 minutes each. […]

NRP1v2 (22-602) = molecular target: T1, NRP1v2 (22-602) (human, UniProt O14786 22-602); experiment: Western blot, denatured recombinant protein with or without 50 mM DTT
T1 construct: Recombinant protein; also called human NRP1
T1 sequence: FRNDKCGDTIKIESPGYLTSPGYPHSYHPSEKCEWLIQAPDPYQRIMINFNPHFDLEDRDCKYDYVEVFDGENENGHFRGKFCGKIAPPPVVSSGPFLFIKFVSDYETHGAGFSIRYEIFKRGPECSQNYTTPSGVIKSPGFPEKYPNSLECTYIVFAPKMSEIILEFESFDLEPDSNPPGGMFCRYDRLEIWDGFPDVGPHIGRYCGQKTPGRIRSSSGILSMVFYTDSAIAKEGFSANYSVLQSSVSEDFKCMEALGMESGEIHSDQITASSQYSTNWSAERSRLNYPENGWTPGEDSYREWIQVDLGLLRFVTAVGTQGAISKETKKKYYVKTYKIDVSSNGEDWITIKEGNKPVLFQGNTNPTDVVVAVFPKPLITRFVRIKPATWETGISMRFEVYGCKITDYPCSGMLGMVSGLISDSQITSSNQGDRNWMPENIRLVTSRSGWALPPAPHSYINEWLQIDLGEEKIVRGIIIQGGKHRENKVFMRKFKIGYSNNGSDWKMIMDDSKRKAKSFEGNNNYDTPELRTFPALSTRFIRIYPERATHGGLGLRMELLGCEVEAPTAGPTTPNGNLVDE
Experimental: To characterize the binding specificity of antibody aNRP2-36v2 to different denatured isoforms of NRP2 its binding specificity was tested via western blot. In addition to assessing the relative binding to NRP2a and NRP2b, cross-reactivity to mouse and rat NRP2 were also evaluated, as well as non-specific binding to NRP1. The proteins tested via Western were NRP2v2 (23-855) (SEQ ID NO: 14), NRP2v5 (23-832) (SEQ ID NO: 27), mouse NRP2v2 (23-855) (SEQ ID NO: 21), rat NRP2×2 (23-854) (SEQ ID NO: 22), and NRP1v2 (22-602) (SEQ ID NO: 24).
25 ng of each recombinant protein was denatured for 10 minutes at 70° C. with 1×LDS (ThermoFisher, NP0007) with or without 50 mM DTT and separated on a 4-12% Bis-Tris Protein Gel (ThermoFisher, NP0335) in 1×MOPS buffer (ThermoFisher, NP000102). The gel was then transferred to a nitrocellulose membrane (Fisher, cat. #IB23001) using an iBlot2 (Fisher, cat. #IB21001) for 7 min at 20V. The membrane was blocked for 1 hour using a 5% milk 0.05% TBST solution, followed by 1.0 ug/mL of the three lots of aNRP2-36v2 antibody diluted in 5% milk 0.05% TBST. Antibody was incubated on the blots overnight at 4° C. with rocking. After overnight incubation 3 washes with 0.05% TBST for 5 minutes each were performed and goat-a-mouse HRP secondary (Jackson Immuno Research, 115-035-071) diluted at 1:5,000 in the 5% milk mixture was applied to the blots for 1 hour. […]

Binder	binding result (aNRP2-36v2)	binding result (NRP1v2 (22-602))
SGFNCNFDFLEEPCGWMY (Peptide corresponding to residues 642-659 of NRP2) [blocking peptide NRP2 (642-659)]	binds	–
B1	–	no binding
